Assay results as given in patent US8147838B2, “Peptide” (priority 2005, dated 2012).

molecular target: MHC class I allele A*0101 (A1) (Homo sapiens, UniProt P04439, A114D/A174V/A182V/D101N/D185E/E176A/E190D/L180R/Q94H/R68K/S129P/T187R/V100A/V91M/W191G); assay: iTopia peptide binding assay, A*0101; settings: percent of positive control peptide binding; peptide at 1.11×10^−5M
Method: (§1) The 9 mers were tested for Peptide Binding, Off Rate and Affinity using iTopia Epitope Discovery System in accordance with the manufacturer's instructions. Briefly, 96 well microtitre plates coated with MHC molecules representing different MHC alleles are used to identify candidate peptides. […] Determinations are performed in duplicate using an ELISA plate reader and included allele specific positive controls.
(§2) i) Peptide Binding—This assay measures the ability of individual peptides to bind to the MHC molecules under standardized optimal binding conditions. The assay is performed for all the test peptides across the selected MHC alleles. The test peptides identified as “binders” are characterized further in terms of affinity and dissociation experiments.
(§3) Following a period of binding under optimal conditions, excess antibody is removed and a measurement of total fluorescence taken (D).
(§4) The binding of the test peptides to the MHC molecules was performed at 1.11×10^−5M of peptide under optimal, standardised test conditions. A control peptide was run in parallel on the same plate and at the same concentration as the test peptides.
(§5) The level of binding is expressed as a percent of positive control peptide binding for each allele.

Row | Sequence | Peptide binding, MHC Class I Molecule A*0101
1 | AALLAGRAL [Peptide 101] | 1 % of control
2 | AALNLSGSR [Peptide 61] | 3 % of control
3 | ACRDHMEGY [Peptide 196] | 3 % of control
4 | ADMVTWLKE [Peptide 152] | 0 % of control
5 | AELQGLPHI [Peptide 140] | 0 % of control
6 | AFEHLPSLR [Peptide 69] | 1 % of control
7 | AFSGSNASV [Peptide 81] | 2 % of control
8 | AGAFEHLPS [Peptide 68] | 6 % of control
9 | AGRALQGLR [Peptide 103] | 0 % of control
10 | ASAVSAQPP [Peptide 25] | 2 % of control
11 | CAYPEKMRN [Peptide 162] | 0 % of control
12 | CSRGPAAGD [Peptide 3] | 0 % of control
13 | DCDPILPPS [Peptide 172] | 0 % of control
14 | DCHMADMVT [Peptide 150] | 0 % of control
15 | DEVRAGAFE [Peptide 66] | 6 % of control
16 | DLDCDPILP [Peptide 171] | 0 % of control
17 | DNALKVLHN [Peptide 134] | 1 % of control
18 | DPILPPSLQ [Peptide 173] | 0 % of control
19 | DRLTCAYPE [Peptide 160] | 0 % of control
20 | ECSEAARTV [Peptide 34] | 2 % of control
21 | EDERQNRSF [Peptide 94] | 0 % of control
22 | EGYHYRYEI [Peptide 199] | 0 % of control
23 | ERQNRSFEG [Peptide 95] | 0 % of control
24 | ESLHLEDNA [Peptide 131] | 2 % of control
25 | ETEVVQGKD [Peptide 156] | 0 % of control
26 | GAIFLLVLY [Peptide 184] | 0 % of control
27 | GKDRLTCAY [Peptide 159] | 3 % of control
28 | HLESLHLED [Peptide 130] | 4 % of control
29 | HNPLADLSP [Peptide 76] | 5 % of control
30 | IFLLVLYLN [Peptide 185] | 0 % of control

molecular target: MHC class I allele B*0702 (B7) (Homo sapiens, UniProt P01889); assay: iTopia peptide binding assay, B*0702; settings: percent of positive control peptide binding; peptide at 1.11×10^−5M
Method: as §1, §2, §3, §4, §5

Row | Sequence | Peptide binding, MHC Class I Molecule B*0702
31 | AALLAGRAL [Peptide 101] | 59 % of control
32 | AALNLSGSR [Peptide 61] | 3 % of control
33 | ACRDHMEGY [Peptide 196] | 7 % of control
34 | ADMVTWLKE [Peptide 152] | 8 % of control
35 | AELQGLPHI [Peptide 140] | 0 % of control
36 | AFEHLPSLR [Peptide 69] | 0 % of control
37 | AFSGSNASV [Peptide 81] | 14 % of control
38 | AGAFEHLPS [Peptide 68] | 7 % of control
39 | AGRALQGLR [Peptide 103] | 1 % of control
40 | ASAVSAQPP [Peptide 25] | 0 % of control
41 | CAYPEKMRN [Peptide 162] | 3 % of control
42 | CSRGPAAGD [Peptide 3] | 3 % of control
43 | DCDPILPPS [Peptide 172] | 0 % of control
44 | DCHMADMVT [Peptide 150] | 5 % of control
45 | DEVRAGAFE [Peptide 66] | 12 % of control
46 | DLDCDPILP [Peptide 171] | 3 % of control
47 | DNALKVLHN [Peptide 134] | 0 % of control
48 | DPILPPSLQ [Peptide 173] | 0 % of control
49 | DRLTCAYPE [Peptide 160] | 3 % of control
50 | ECSEAARTV [Peptide 34] | 0 % of control
51 | EDERQNRSF [Peptide 94] | 4 % of control
52 | EGYHYRYEI [Peptide 199] | 4 % of control
53 | ERQNRSFEG [Peptide 95] | 1 % of control
54 | ESLHLEDNA [Peptide 131] | 0 % of control
55 | ETEVVQGKD [Peptide 156] | 1 % of control
56 | GAIFLLVLY [Peptide 184] | 0 % of control
57 | GKDRLTCAY [Peptide 159] | 4 % of control
58 | HLESLHLED [Peptide 130] | 2 % of control
59 | HNPLADLSP [Peptide 76] | 5 % of control
60 | IFLLVLYLN [Peptide 185] | 2 % of control

molecular target: MHC class I allele A*0301 (A3) (Homo sapiens, UniProt P04439); assay: iTopia peptide binding assay, A*0301; settings: percent of positive control peptide binding; peptide at 1.11×10^−5M
Method: as §1, §2, §3, §4, §5

Row | Sequence | Peptide binding, MHC Class I Molecule A*0301
61 | AALLAGRAL [Peptide 101] | 0 % of control
62 | AALNLSGSR [Peptide 61] | 13 % of control
63 | ACRDHMEGY [Peptide 196] | 4 % of control
64 | ADMVTWLKE [Peptide 152] | 4 % of control
65 | AELQGLPHI [Peptide 140] | 1 % of control
66 | AFEHLPSLR [Peptide 69] | 11 % of control
67 | AFSGSNASV [Peptide 81] | 2 % of control
68 | AGAFEHLPS [Peptide 68] | 3 % of control
69 | AGRALQGLR [Peptide 103] | 2 % of control
70 | ASAVSAQPP [Peptide 25] | 0 % of control
71 | CAYPEKMRN [Peptide 162] | 4 % of control
72 | CSRGPAAGD [Peptide 3] | 5 % of control
73 | DCDPILPPS [Peptide 172] | 3 % of control
74 | DCHMADMVT [Peptide 150] | 3 % of control
75 | DEVRAGAFE [Peptide 66] | 7 % of control
76 | DLDCDPILP [Peptide 171] | 4 % of control
77 | DNALKVLHN [Peptide 134] | 0 % of control
78 | DPILPPSLQ [Peptide 173] | 4 % of control
79 | DRLTCAYPE [Peptide 160] | 5 % of control
80 | ECSEAARTV [Peptide 34] | 0 % of control
81 | EDERQNRSF [Peptide 94] | 4 % of control
82 | EGYHYRYEI [Peptide 199] | 0 % of control
83 | ERQNRSFEG [Peptide 95] | 1 % of control
84 | ESLHLEDNA [Peptide 131] | 0 % of control
85 | ETEVVQGKD [Peptide 156] | 3 % of control
86 | GAIFLLVLY [Peptide 184] | 5 % of control
87 | GKDRLTCAY [Peptide 159] | 6 % of control
88 | HLESLHLED [Peptide 130] | 2 % of control
89 | HNPLADLSP [Peptide 76] | 3 % of control
90 | IFLLVLYLN [Peptide 185] | 0 % of control

molecular target: MHC class I allele A*0201 (A2) (Homo sapiens, UniProt P04439, D140Y/D185E/D98H/E176V/E277Q/G131W/G231S/I119V/I121R/I166T/I218V/L300P/L318F/N151K/N90K/P208A/P217A/Q86G/Q94H/R138H/R169H/T345S); assay: iTopia peptide binding assay, A*0201; settings: percent of positive control peptide binding; peptide at 1.11×10^−5M
Method: as §1, §2, §3, §4, §5

Row | Sequence | Peptide binding, MHC Class I Molecule A*0201
91 | AALLAGRAL [Peptide 101] | 38 % of control
92 | AALNLSGSR [Peptide 61] | 6 % of control
93 | ACRDHMEGY [Peptide 196] | 8 % of control
94 | ADMVTWLKE [Peptide 152] | 6 % of control
95 | AELQGLPHI [Peptide 140] | 9 % of control
96 | AFEHLPSLR [Peptide 69] | 11 % of control
97 | AFSGSNASV [Peptide 81] | 55 % of control
98 | AGAFEHLPS [Peptide 68] | 10 % of control
99 | AGRALQGLR [Peptide 103] | 2 % of control
100 | ASAVSAQPP [Peptide 25] | 5 % of control
101 | CAYPEKMRN [Peptide 162] | 11 % of control
102 | CSRGPAAGD [Peptide 3] | 3 % of control
103 | DCDPILPPS [Peptide 172] | 0 % of control
104 | DCHMADMVT [Peptide 150] | 7 % of control
105 | DEVRAGAFE [Peptide 66] | 9 % of control
106 | DLDCDPILP [Peptide 171] | 0 % of control
107 | DNALKVLHN [Peptide 134] | 5 % of control
108 | DPILPPSLQ [Peptide 173] | 7 % of control
109 | DRLTCAYPE [Peptide 160] | 6 % of control
110 | ECSEAARTV [Peptide 34] | 4 % of control
111 | EDERQNRSF [Peptide 94] | 2 % of control
112 | EGYHYRYEI [Peptide 199] | 9 % of control
113 | ERQNRSFEG [Peptide 95] | 1 % of control
114 | ESLHLEDNA [Peptide 131] | 8 % of control
115 | ETEVVQGKD [Peptide 156] | 1 % of control
116 | GAIFLLVLY [Peptide 184] | 5 % of control
117 | GKDRLTCAY [Peptide 159] | 6 % of control
118 | HLESLHLED [Peptide 130] | 3 % of control
119 | HNPLADLSP [Peptide 76] | 7 % of control
120 | IFLLVLYLN [Peptide 185] | 8 % of control
